Source: paper PMC5643311

Assays:
Experiment in all cases: co-immunoprecipitation, blot
Details in all cases: reference: wild type, EGF; sites S303
RelA/p65 [1] = target: RelA/p65 (UniProt Q04206)
RelA/p65 [2] = target: RelA/p65 (UniProt Q04206); remark: listed apart in the source
RelA/p65 [3] = target: RelA/p65 (UniProt Q04206); remark: listed apart in the source

Measured: binding against the reference

MIIP (migration and invasion inhibitory protein) (from UniProt Q5JXC2) S303A, EGF
weaker: all assays above
